Test results published in US20230113563A1 (SYSTIMMUNE, published 2023).

B1: SI-49R23 (Fc fusion)
chain: FLNSLFNQEVQIPLTESYCGPCPKNWICYKNNCYQFFDESKNWYESQASCMSQNASLLKVYSKEDQDLLKLVKSYHWMGLVHIPTNGSWQWEDGSILSPNLLTIIEMQKGDCALYASSFKGYIENCSTPNTYICMQRTVASEPKSSDKTHTCPPCPAPEAAGGPSVFLFPPKPKDTLMISRTPEVTCVVVDVSHEDPEVKFNWYVDGVEVHNAKTKPREEQYASTYRVVSVLTVLHQDWLNGKEYKCAVSNKALPAPIEKTISKAKGQPREPQVYTLPPSRDELTKNQVSLTCLVKGFYPSDIAVEWESNGQPENNYKTTPPVLDSDGSFFLYSKLTVDKSRWQQGNVFSCSVMHEALHNHYTQKSLSLSPGK
notes: Monospecific protein with NKG2D directly fused to the antibody Fc domain; Two copies are inferred from the Fc dimer
B2: SI-49R19 (bispecific antibody)
heavy: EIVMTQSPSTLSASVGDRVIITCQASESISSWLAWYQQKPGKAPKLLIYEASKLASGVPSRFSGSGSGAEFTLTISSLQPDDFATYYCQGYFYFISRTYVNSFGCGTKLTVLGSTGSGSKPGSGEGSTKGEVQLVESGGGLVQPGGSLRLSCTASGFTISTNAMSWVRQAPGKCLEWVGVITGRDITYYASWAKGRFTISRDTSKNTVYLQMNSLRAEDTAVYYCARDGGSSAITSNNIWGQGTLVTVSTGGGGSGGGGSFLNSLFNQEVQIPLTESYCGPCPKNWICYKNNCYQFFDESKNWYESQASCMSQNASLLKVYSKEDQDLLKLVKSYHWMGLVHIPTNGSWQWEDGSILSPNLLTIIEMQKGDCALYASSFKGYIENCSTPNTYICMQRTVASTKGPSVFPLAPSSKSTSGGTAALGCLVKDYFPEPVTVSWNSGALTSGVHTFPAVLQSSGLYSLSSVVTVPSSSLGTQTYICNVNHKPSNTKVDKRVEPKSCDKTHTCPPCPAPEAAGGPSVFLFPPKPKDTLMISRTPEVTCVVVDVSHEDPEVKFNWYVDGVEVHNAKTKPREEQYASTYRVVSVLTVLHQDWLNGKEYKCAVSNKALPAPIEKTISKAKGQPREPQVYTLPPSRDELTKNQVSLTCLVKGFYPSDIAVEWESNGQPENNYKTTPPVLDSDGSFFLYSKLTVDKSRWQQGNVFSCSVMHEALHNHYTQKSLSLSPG
light: FLNSLFNQEVQIPLTESYCGPCPKNWICYKNNCYQFFDESKNWYESQASCMSQNASLLKVYSKEDQDLLKLVKSYHWMGLVHIPTNGSWQWEDGSILSPNLLTIIEMQKGDCALYASSFKGYIENCSTPNTYICMQRTVRTVAAPSVFIFPPSDEQLKSGTASVVCLLNNFYPREAKVQWKVDNALQSGNSQESVTEQDSKDSTYSLSSTLTLSKADYEKHKVYACEVTHQGLSSPVTKSFNRGEC
notes: Bispecific GNC: anti-CD3 scFv (αCD3-alt) at D1 and NKG2D at D2
B3: human MICA (Acro, MIA-H5221) (ligand, UniProt Q29983 24-307, looked up)
chain: EPHSLRYNLTVLSWDGSVQSGFLTEVHLDGQPFLRCDRQKCRAKPQGQWAEDVLGNKTWDRETRDLTGNGKDLRMTLAHIKDQKEGLHSLQEIRVCEIHEDNSTRSSQHFYYDGELFLSQNLETKEWTMPQSSRAQTLAMNVRNFLKEDAMKTKTHYHAMHADCLQELRRYLKSGVVLRRTVPPMVNVTRSEASEGNITVTCRASGFYPWNITLSWRQDGVSLSHDTQQWGDVLPDGNGTYQTWVATRICQGEEQRFTCYMEHSGNHSTHPVPSGKVLVLQSHW
notes: Bought reagent used as analyte in solution; also called NKG2D ligand MICA

Experiments:
[1] = biological target: B3; experiment: BLI (Octet); GNC protein loaded on AHC sensors at 5 ug/ml; human MICA as analyte, 1:2 serial dilutions from 100 nM; global fit, 1:1 model
Method: (§1) To validate functionality of the NKG2D receptor in the D2 position, Octet binding was performed. GNC protein was loaded onto AHC sensors at 5 ug/ml, and subsequently bound to 1:2 serial dilutions (top concentration 100 nM) of human MICA (Acro, MIA-H5221).

SI-49P7 = biological target: T1, SI-49P7; experiment: as above
T1 construct: Penta-specific GNC: same structure as SI-49P6, but with 4-1BB ligand trimer at D4 instead of the anti-4-1BB scFv
T1 sequence (heavy, as listed by the source): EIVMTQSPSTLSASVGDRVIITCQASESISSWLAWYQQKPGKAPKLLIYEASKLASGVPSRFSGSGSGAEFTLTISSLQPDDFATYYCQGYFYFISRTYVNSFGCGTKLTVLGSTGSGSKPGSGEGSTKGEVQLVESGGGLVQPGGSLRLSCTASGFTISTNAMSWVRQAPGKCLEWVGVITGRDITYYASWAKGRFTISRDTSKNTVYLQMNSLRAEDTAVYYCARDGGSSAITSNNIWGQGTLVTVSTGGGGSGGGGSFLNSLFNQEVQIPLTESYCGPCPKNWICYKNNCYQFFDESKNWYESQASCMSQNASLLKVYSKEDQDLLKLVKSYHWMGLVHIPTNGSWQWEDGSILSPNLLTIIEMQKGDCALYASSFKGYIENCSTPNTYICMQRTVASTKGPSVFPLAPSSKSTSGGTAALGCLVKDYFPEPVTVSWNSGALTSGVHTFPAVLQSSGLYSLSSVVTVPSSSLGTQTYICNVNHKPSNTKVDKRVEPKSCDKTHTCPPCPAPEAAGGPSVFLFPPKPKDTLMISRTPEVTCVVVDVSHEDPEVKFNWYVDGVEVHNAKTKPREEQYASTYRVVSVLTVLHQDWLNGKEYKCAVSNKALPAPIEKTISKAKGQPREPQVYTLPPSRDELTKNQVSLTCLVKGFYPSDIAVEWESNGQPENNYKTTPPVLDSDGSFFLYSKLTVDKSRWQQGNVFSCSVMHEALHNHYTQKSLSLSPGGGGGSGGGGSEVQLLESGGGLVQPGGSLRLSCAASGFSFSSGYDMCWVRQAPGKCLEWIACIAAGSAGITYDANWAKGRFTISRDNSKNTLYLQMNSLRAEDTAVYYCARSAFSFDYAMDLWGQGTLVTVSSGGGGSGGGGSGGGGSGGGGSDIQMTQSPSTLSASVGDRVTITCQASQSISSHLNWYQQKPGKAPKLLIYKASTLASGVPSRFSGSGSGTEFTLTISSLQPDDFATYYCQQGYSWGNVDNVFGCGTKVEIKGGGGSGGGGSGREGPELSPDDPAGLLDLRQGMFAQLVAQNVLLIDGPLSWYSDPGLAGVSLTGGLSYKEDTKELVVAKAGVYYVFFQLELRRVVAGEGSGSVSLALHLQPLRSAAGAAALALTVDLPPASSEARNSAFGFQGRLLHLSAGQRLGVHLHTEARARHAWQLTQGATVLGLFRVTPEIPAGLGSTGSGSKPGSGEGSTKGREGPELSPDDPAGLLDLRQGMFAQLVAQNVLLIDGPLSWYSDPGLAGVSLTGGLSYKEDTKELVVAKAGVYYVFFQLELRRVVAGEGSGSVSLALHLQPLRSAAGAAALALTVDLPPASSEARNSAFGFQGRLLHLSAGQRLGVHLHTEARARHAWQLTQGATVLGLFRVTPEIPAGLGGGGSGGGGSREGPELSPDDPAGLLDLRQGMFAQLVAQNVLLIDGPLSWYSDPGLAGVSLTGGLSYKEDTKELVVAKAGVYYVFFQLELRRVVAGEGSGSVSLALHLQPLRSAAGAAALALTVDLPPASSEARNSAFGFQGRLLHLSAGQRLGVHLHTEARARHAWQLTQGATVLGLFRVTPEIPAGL
Method: as §1

Kd [1] [nM] | Kd (SI-49P7) [nM] | Binder
14.9 | – | B1
3.93 | – | B2
– | 11.2 | B3
